Earlier results as cited in article PMC3376167.

Biological target: ARNT PAS-B (Homo sapiens) (UniProt P27540)
Sequence (P27540 356-470): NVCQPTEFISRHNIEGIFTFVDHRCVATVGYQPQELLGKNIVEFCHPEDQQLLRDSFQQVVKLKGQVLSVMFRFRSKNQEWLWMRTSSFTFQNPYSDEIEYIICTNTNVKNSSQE

HIF-2α PAS-B, sequence (Q99814 239-350): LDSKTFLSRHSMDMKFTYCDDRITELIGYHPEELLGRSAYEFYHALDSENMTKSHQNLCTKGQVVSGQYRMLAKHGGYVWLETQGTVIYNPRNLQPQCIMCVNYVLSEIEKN

Substance: HIF-2α PAS-B (from UniProt Q99814)
- Kd: 120 µM
